For series [1], the system named is FaDu human head and neck cancer xenograft. In words: Xenograft model of anti-NTSR1 ADCs (head and neck cancer). To be noted: for FaDu tumor growth: 5 mg/kg, Day 10 to Day 17. It is filed as in vivo, male NOD SCID mice. As for the experimental part: The aim of this study was to evaluate the in vivo anti-tumor efficacy of αNTSR1 (AKT2) 4seco-DUBA, αNTSR1 (AKT2 Hu/Hu) 4seco-DUBA, and αNTSR1 (AKT2 Hu/Hd) 4seco-DUBA in FaDu human head and neck cancer xenograft model in male NOD SCID mice.
Formulations respectively comprising test article αNTSR1 (AKT2) 4seco-DUBA, test article αNTSR1 (AKT2 Hu/Hu) 4seco-DUBA, test article αNTSR1 (AKT2 Hu/Hd) 4seco-DUBA, and Hu IgG were formulated by diluting the stock with a 25 mM sodium citrate buffer (pH 6.5). […]
The FaDu cells were maintained in vitro as a monolayer culture in RPMI-1640 medium supplemented with 10% fetal bovine serum at 37° C. in an atmosphere of 5% CO2 in air. The tumor cells were routinely sub-cultured twice weekly by trypsin-EDTA treatment. The cells growing in an exponential growth phase were harvested and counted for tumor inoculation.
Male NOD SCID mice at age of 6-7 weeks were quarantined for one week. Five mice were housed in each cage. All animals were hosted in the animal facility with a 12-h light/12-h dark cycle at 19-25° C. Animals had free access to rodent pellet foods and water ad libitum.
FaDu cells were subcutaneously (SC) implanted (4×10^6 cells in 1:1 PBS/matrigel mixture at 0.1 mL per mouse) into the right flank of male NOD SCID mice. When the average tumor volume had reached about 200 mm^3, the mice were randomly divided into 7 groups (N=6 per group). Each of Hu IgG, αNTSR1 (AKT2) 4seco-DUBA (5 mg/kg), αNTSR1 (AKT2 Hu/Hu) 4seco-DUBA (5 mg/kg), and αNTSR1 (AKT2 Hu/Hd) 4seco-DUBA (5 mg/kg) was intravenously administered twice weekly for 3 weeks.
The tumor volumes, body weights, mortality, and signs of overt toxicity were monitored and recorded three times weekly for 28 days. Tumor volumes (mm^3) were measured three times per week using calipers and calculated according to the formula: Tumor Volume=(w^2×l)/2, where w=width and l=length in diameter (mm) of the tumor. The percentages of tumor growth inhibition (TGI) were calculated using the following formula: % TGI=[1−(T/C)]×100%, where T and C represent the mean tumor volumes of the treatment group and the control group, respectively. A TGI (%) value≥58% was considered as indicating significant anti-tumor activity. Animals were weighed three times weekly until the completion of the study.

Series [2] in a line: In vivo pharmacokinetic analysis (MSD ECL total antibody assay). To be noted: BALB/c mice, 5 mg/kg via the tail vein; for MRT / Vss / t½: total antibody; for in vivo half live: 5 mg/kg. From the text: This Example used Meso Scale Discovery (MSD) Electrochemiluminescent (ECL) method to conduct the PK analysis of the anti-NTSR1 antibodies αNTSR1 (AKT2), αNTSR1 (AKT2 Hu/Hu) and αNTSR1 (AKT2 Hu/Hd) in BALB/c mice samples. The MSD assay can measure both conjugated and unconjugated antibodies. As illustrated in this example, for total antibody assay (including conjugated and unconjugated antibodies), the plate is coated with goat anti-human IgG, which can capture all humanized antibodies (conjugated and unconjugated).
The mice were administered at a dose level of 5 mg/kg via the tail vein. Blood samples were then obtained at different time points for determining the concentrations of αNTSR1 (AKT2), αNTSR1 (AKT2 Hu/Hu) and αNTSR1 (AKT2 Hu/Hd) in mice by MESO QuickPlex SQ 120 method. The PK parameters of αNTSR1 (AKT2), αNTSR1 (AKT2 Hu/Hu) and αNTSR1 (AKT2 Hu/Hd) were analyzed by noncompartmental analysis using PHOENIX™ for WinNonlin Program, version 6.3.

Another series has as its target NTSR1 protein (Homo sapiens, UniProt P30989). As to the kind of experiment: SPR (BIACORE T200) multi-cycle kinetic assay. To be noted: 25° C., one-to-one Langmuir binding model. As for the experimental part: To know the binding kinetics differences among individual anti-NTSR1 antibodies, surface plasmon resonance (SPR) measurement with BIACORE™ T200 (CYTIVA® Inc.) was used as previously described (Karlsson & Falt, (1997) J. Immunol Methods 200:121-133). Carboxymethylated dextran biosensor chips (CM5, CYTIVA® Inc.) were activated with N-ethyl-N′-(3-dimethylaminopropyl)-carbodiimide hydrochloride (EDC) and N-hydroxysuccinimide (NHS) according to the supplier's instructions. NTSR1 protein was diluted with 10 mM sodium acetate, pH 4.0, into 5 μg/ml before injection at a flow rate of 10 μL/minute to achieve approximately 1500 response units (RU) of coupled protein followed by the injection of 1 M ethanolamine to block unreacted groups. For kinetics measurements, two-fold serial dilutions of anti-NTSR1 mAb (0.3125 nM to 40 nM) were injected in HBS-EP+BIACORET™ running buffer provided by the manufacturer (CYTIVA® Inc.) at 25° C. at a flow rate of 30 μL/min, and binding responses on the NTSR1 protein were corrected by subtraction of responses on a blank flow cell. Association rates (kon or Ka) and dissociation rates (koff or Kd) were calculated using a simple one-to-one Langmuir binding model with separate fittings of kon and koff. (CYTIVA® BIACORET™ Insight Evaluation Software).
On the technique in general: In SPR one partner is held on a chip, and binding of the other changes the refractive index at the surface.

The next series deals with FaDu cells. In words: In vitro cytotoxicity study (CELLTITER-GLO). In kind it is cell-based, human. To be noted: 72 hours treatment, cell viability, read-out: Relative IC50. On the procedure: Human head and neck cancer cell line FaDu was respectively grown in RPMI-1640 medium (ATCC® modification) supplemented with 10% fetal bovine serum. The FaDu cell lines were maintained in an atmosphere of 5% CO2 in a humidified 37° C. incubator. The day before treatment, cells were collected and seeded into 96-well plates (4,000 cells per well). Each treatment was performed in eight triplicate data points. After the treatment of 72 hours, cell viability was assessed by CELLTITER-GLO® kit (PROMEGA®) according to the manufacturer's instruction. At the end of the incubation, luminescence was measured using a SpectraMax i3x Multi Mode Detection Platform (MOLECULAR DEVICES®). Compound cytotoxicity was evaluated in comparison to cells treated with 0.05% PBS (ADCs) or 0.05% DMSO (toxic payload). IC50 values were calculated by fitting viability data with a four-parameter logistic equation using GRAPHPAD® prism 5.0 software.

Sequence of NTSR1 protein (P30989 whole entry): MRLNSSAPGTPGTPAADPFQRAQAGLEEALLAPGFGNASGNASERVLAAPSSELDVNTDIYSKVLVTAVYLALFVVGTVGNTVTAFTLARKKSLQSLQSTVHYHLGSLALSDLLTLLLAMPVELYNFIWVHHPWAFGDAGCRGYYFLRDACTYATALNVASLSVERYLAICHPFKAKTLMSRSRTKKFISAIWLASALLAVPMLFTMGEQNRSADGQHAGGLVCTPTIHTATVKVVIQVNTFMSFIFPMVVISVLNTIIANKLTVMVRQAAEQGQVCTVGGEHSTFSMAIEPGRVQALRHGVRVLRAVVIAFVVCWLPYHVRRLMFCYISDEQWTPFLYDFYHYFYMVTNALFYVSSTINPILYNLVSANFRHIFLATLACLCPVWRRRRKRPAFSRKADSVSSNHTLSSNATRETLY

B1: AKT2 HuHu: humanized anti-NTSR1 antibody, AKT2 HuVH (SEQ ID NO: 16) and AKT2 HuVL (SEQ ID NO: 17) (antibody, V domains shown)
VH: QVQLVQSGAEVKKPGASVKVSCKASGYAFTSSWIHWVRQAPGQGLEWMGQIRPNSGNTYYNEKFKVRVTMTRDTSTSTVYMELSSLRSEDTAVYYCARYHYGFDYWGQGTLVTVSS
VL: DIVMTQTPLSLSVTPGQPASISCRSSQSIVHSNGNTYLEWYLQKPGQSPQLLIYKVSNRFSGVPDRFSGSGSGTDFTLKISRVEAEDVGVYYCFQGAHLPWTFGQGTKVEIK
As usually defined, the MRT is the average time that molecules of a dose stay in the body. For orientation: Vss means a proportionality between amount in the body and measured concentration, not a real space. Broadly, the t½ is how long it takes for the measured level to halve. Low values mean fast loss, high ones slow loss. B1: in series [1] (5 mpk, IV, BIW × 3), the “TGI % (1-T/C) Day 0” value worked out at 0.0%, the “TGI % (1-T/C) Day 5” value turned out to be 33.4%, the “TGI % (1-T/C) Day 7” value was 37.3% and the “TGI % (1-T/C) Day 10” value is 13.4%. Moreover, in series [1] (5 mpk, IV, BIW × 3), the “TGI % (1-T/C) Day 12” value is listed as 6.7%, the “TGI % (1-T/C) Day 14” value is listed as 25.6% and the “TGI % (1-T/C) Day 17” value was 26.9%. Also, the “TGI % (1-T/C) Day 3” value in series [1] (5 mpk, IV, BIW × 3, Day 3) is 17.7%. In addition, in series [2], the mean residence time MRT was determined as 252 ± 116 h, the Vss is 0.120 ± 0.026 L/kg and the t½ was determined as 182 ± 90.8 h. Also, the “in vivo half live” value in series [2] (listed as αNTSR1 (AKT2 Hu/Hu)) turned out to be 182 ± 90.8 h. In addition, in the series with NTSR1 protein, the “Ka (kon, association rate)” value was 787700 M⁻¹ s⁻¹ and the “Kd (koff, dissociation rate)” value stood at 0.0008084 s⁻¹.

B2: αNTSR1 (AKT2 Hu/Hu) 4seco-DUBA: antibody-drug conjugate of humanized antibody AKT2 HuHu with seco-DUBA payload (conjugate)
heavy chain: QVQLVQSGAEVKKPGASVKVSCKASGYAFTSSWIHWVRQAPGQGLEWMGQIRPNSGNTYYNEKFKVRVTMTRDTSTSTVYMELSSLRSEDTAVYYCARYHYGFDYWGQGTLVTVSS
light chain: DIVMTQTPLSLSVTPGQPASISCRSSQSIVHSNGNTYLEWYLQKPGQSPQLLIYKVSNRFSGVPDRFSGSGSGTDFTLKISRVEAEDVGVYYCFQGAHLPWTFGQGTKVEIK
The IC50 is the concentration that inhibits the measured activity by half. For the molecule B2, the IC50 in the series on FaDu cells was determined as 12.5 nM. The “FaDu tumor growth” value in series [1] is on record as “significantly reduced FaDu tumor growth”. In series [1] (5 mpk, IV, BIW × 3), the “TGI % (1-T/C) Day 0” value was 0.0%, the “TGI % (1-T/C) Day 5” value is 17.5%, the “TGI % (1-T/C) Day 7” value was determined as 47.2% and the “TGI % (1-T/C) Day 10” value is listed as 65.4%. For the same molecule, in series [1] (5 mpk, IV, BIW × 3), the “TGI % (1-T/C) Day 12” value turned out to be 72.2%, the “TGI % (1-T/C) Day 14” value came to 83.8% and the “TGI % (1-T/C) Day 17” value came out at 90.8%.

B3: AKT2 HuHd: humanized anti-NTSR1 antibody, AKT2 HuVH (SEQ ID NO: 16) and AKT2 HdVL (SEQ ID NO: 15) (antibody, V domains shown)
VH: QVQLVQSGAEVKKPGASVKVSCKASGYAFTSSWIHWVRQAPGQGLEWMGQIRPNSGNTYYNEKFKVRVTMTRDTSTSTVYMELSSLRSEDTAVYYCARYHYGFDYWGQGTLVTVSS
VL: DIQMTQSPSSLSASVGDRVTITCRSSQSIVHSNGNTYLEWYQQKPGKAPKLLIYKVSNRFSGVPSRFSGSGSGTDFTLTISSLQPEDFATYYCFQGAHLPWTFGQGTKVEIK
B3: in series [1] (5 mpk, IV, BIW × 3), the “TGI % (1-T/C) Day 0” value is 0.0%, the “TGI % (1-T/C) Day 5” value was 13.1%, the “TGI % (1-T/C) Day 7” value is given as 28.4% and the “TGI % (1-T/C) Day 10” value is on record as 36.2%. Moreover, in series [1] (5 mpk, IV, BIW × 3), the “TGI % (1-T/C) Day 12” value is 40.9%, the “TGI % (1-T/C) Day 14” value came out at 37.8% and the “TGI % (1-T/C) Day 17” value came out at 32.5%. In series [2], the MRT turned out to be 209 ± 62.5 h, the volume of distribution (Vss) stood at 0.135 ± 0.020 L/kg and the t½ is recorded as 156 ± 48.6 h. Further, the “in vivo half live” value in series [2] (listed as αNTSR1 (AKT2 Hu/Hd)) was determined as 156 ± 48.6 h. Besides, in the series with NTSR1 protein, the “Ka (kon, association rate)” value is 461400 M⁻¹ s⁻¹ and the “Kd (koff, dissociation rate)” value was 0.0006575 s⁻¹.

B4: αNTSR1 (AKT2) 4seco-DUBA: antibody-drug conjugate of chimera antibody AKT2 with seco-DUBA payload (conjugate)
heavy chain: QVQLQQPGSVLVRPGASVKLSCKASGYAFTSSWIHWAKQRPGQGLEWIGQIRPNSGNTYYNEKFKVKATLTVDTSSSTAYVDLSSLTSEDSAVYYCARYHYGFDYWGQGTLVTVSS
light chain: DVLMTQTPLSLPVSLGDQASISCRSSQSIVHSNGNTYLEWYLQKPGQSPKLLIYKVSNRFSGVPDRFSGSGSGTDFTLKISRVEAEDLGVYYCFQGAHLPWTFGGGTKLEIK
On to B4, for which the half-maximal inhibitory concentration (IC50) in the series with FaDu cells stood at 36.9 nM. In addition, the “FaDu tumor growth” value in series [1] is recorded as “significantly reduced FaDu tumor growth”. Also, in series [1] (5 mpk, IV, BIW × 3), the “TGI % (1-T/C) Day 0” value came to 0.0%, the “TGI % (1-T/C) Day 5” value turned out to be 28.5%, the “TGI % (1-T/C) Day 7” value was 54.4% and the “TGI % (1-T/C) Day 10” value stood at 68.5%. Besides, in series [1] (5 mpk, IV, BIW × 3), the “TGI % (1-T/C) Day 12” value is 83.8%, the “TGI % (1-T/C) Day 14” value is recorded as 90.5% and the “TGI % (1-T/C) Day 17” value is 95.3%.
